Results from paper PMC3942467.

Biological target: recombinant C-terminal fragment (residues 284-707) of nucleolin (nucleolin-C) (UniProt P19338)
Experiment: SPR; Biacore 3000; nucleolin-C amine-coupled on CM4 chip (~540 RU); FGF1 or FGF2 10-320 nM in PBS with 0.1 mg/ml BSA, 0.005% P20, pH 7.3, 25 C, 30 ul/min; no fit to 1:1 Langmuir, constants by Interaction Map (two parallel processes); apparent/approximate

Chain of UniProt P19338 (P19338 284-707): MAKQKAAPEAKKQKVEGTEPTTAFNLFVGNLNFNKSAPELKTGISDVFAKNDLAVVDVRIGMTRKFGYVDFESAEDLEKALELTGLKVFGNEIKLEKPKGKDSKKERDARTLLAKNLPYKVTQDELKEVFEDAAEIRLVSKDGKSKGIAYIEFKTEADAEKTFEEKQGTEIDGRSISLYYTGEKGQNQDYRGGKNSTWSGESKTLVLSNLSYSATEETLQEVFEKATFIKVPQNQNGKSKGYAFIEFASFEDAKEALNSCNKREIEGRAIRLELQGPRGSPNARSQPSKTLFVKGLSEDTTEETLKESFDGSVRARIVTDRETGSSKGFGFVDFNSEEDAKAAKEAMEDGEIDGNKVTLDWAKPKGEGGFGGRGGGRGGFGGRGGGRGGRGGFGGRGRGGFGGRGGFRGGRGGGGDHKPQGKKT

recombinant FGF1, truncated form (Ala-FGF1 21-154), wild type (ligand)
KD, stronger of two parallel binding processes (apparent): 40 nM
KD, weaker of two parallel binding processes (approximate): 480 nM
ka, stronger of two parallel binding processes: 18000 M⁻¹ s⁻¹
ka, weaker of two parallel binding processes: 1.7e+06 M⁻¹ s⁻¹
kd, stronger of two parallel binding processes: 0.0007 s⁻¹
kd, weaker of two parallel binding processes: 0.83 s⁻¹
